Results published in patent US20240018237A1 (SICHUAN KELUN BIOTECH BIOPHARMACEUTICAL, published 2024).
Residue numbers refer to the chain shown, from its start.

Legend:
[1] = biological target: T1, human ROR1 (full-length, on the cell surface) (human, UniProt Q01973 30-937); assay: flow cytometry on A549 cells, MFI against antibody concentration
T1 construct: whole, on cells; the tumour cell lines carry their own ROR1; also called Ba/F3-ROR1 cells; Jeko-1
From the text: (§1) The affinity of the candidate antibodies to ROR1 on the surface of human cells was detected by flow cytometry. In addition to the Ba/F3-ROR1 overexpression cells, human mantle cell lymphoma cell line Jeko-1 (ATCC, Cat. No.: CRL-3006), human colon cancer cell line HT-29 (ATCC, Cat. No.: HTB-38), human lung cancer cell line A549 (ATCC, Cat. No.: CCL-185) were also used for the binding assay. The anti-human ROR1 antibody UC961 (for sequence, see WO2018237335A1) with mouse or human IgG1 Fc was used as a positive control, and the anti-2,4,6-trinitrophenol antibody (ATCC) with the corresponding mouse or human IgG1 Fc was used as a negative control. Mouse IgG isotype control (Thermo Fisher, Cat. No.: 31903) was also used as a negative control.

[2] = biological target: T1, human ROR1 (full-length, on the cell …); assay: flow cytometry on Ba/F3-ROR1 cells, MFI against antibody concentration
From the text: as §1

[3] = biological target: T1, human ROR1 (full-length, on the cell …); assay: cell-based or functional assay
[4] = biological target: T2, human ROR2 extracellular domain (ECD) protein (human, UniProt Q01974 34-403); assay: ELISA on coated human ROR2 ECD protein (1 ug/mL), OD at 450 nm
T2 construct: extracellular domain; Bought protein; also called human ROR2 ECD protein; Sino Biologicals 16133-H08H
T2 sequence (Q01974 34-403): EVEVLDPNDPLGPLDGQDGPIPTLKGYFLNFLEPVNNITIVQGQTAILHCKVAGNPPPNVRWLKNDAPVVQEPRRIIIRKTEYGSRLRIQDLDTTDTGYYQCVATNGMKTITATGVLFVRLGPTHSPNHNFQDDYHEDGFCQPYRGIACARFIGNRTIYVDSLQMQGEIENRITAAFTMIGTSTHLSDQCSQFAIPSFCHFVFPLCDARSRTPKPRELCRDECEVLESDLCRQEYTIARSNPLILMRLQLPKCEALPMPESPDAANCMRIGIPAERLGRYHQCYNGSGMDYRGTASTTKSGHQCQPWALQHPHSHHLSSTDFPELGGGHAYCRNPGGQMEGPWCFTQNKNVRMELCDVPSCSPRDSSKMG
Method: It was confirmed by ELISA using extracellular domain (ECD) protein of human ROR2 that the binding specificity of the candidate antibodies to human ROR1 was higher than that of human ROR2. The specific method was as follows: 1 μg/mL human ROR2 extracellular domain (ECD) protein (Sino Biologicals, Cat. No.: 16133-H08H) was added in a 96-well ELISA plate (Thermo Fisher, Cat. No.: 5129) at 100 μL/well, for coating overnight at 4° C. 200 μL of washing buffer (1×TBS containing 0.05% Tween-20) was used to wash 3 times, different concentrations of eight purified mouse-anti-human ROR1 candidate antibodies and UC961 were added at 100 μL, incubated at 37° C. for 1 hour, and mouse-anti-human ROR2 antibody (R&D systems, Cat. No.: MAB2064) was used as a positive control. Washing was performed 3 times with 200 μL of washing buffer, 100 μL of anti-human IgG (Rockland Inc, Cat. No. 609-1304) or anti-mouse IgG secondary antibody (Rockland Inc, Cat. No. 610-1304) diluted at a ratio of 1:10000 were added to each well, incubated at 37° C. for 1 hour. Washing was performed 3 times with 200 μL of washing buffer, 100 μL of TMB (Thermo Fisher, Cat. No.: TMBW-1000-01) was added for color development in the dark for 10 minutes, then 100 μL of stop solution (Thermo Fisher, Cat. No.: 13361-100-10) was added to stop the color development, and reading was carried out by microplate reader at 450 nm.

[5] = biological target: T1, human ROR1 (full-length, on the cell …); assay: flow cytometry on Jeko-1 cells, MFI against antibody concentration
From the text: as §1

[6] = biological target: T1, human ROR1 (full-length, on the cell …); assay: flow cytometry on HT29 cells, MFI against antibody concentration
From the text: as §1

[7] = biological target: T1, human ROR1 (full-length, on the cell …); assay: flow cytometry, A549 cells
Method: (§2) The affinities of the purified anti-human ROR1 chimeric antibodies binding to the Ba/F3-ROR1, Jeko-1, HT-29 and A549 cells were analyzed by flow cytometry. The specific experimental steps were as follows: the Ba/F3-ROR1, Jeko-1, HT-29 and A549 cells were incubated with the purified chimeric antibodies of different concentration gradients on ice for 30 minutes, and the anti-ROR1 antibody UC961 with human IgG1 and the anti-TNP antibody were used as positive and negative controls respectively.

[8] = biological target: T1, human ROR1 (full-length, on the cell …); assay: flow cytometry, Ba/F3-ROR1 cells
Method: as §2

human ROR1 ECD protein [9] = biological target: T3, human ROR1 ECD protein (human, UniProt Q01973 30-406); assay: BLI (Octet), antibody on AHC sensor, ROR1 ECD in solution
T3 construct: range 30-406; Expressed in Expi293 or ExpiCHO cells; also called Recombinant human ROR ECD
T3 sequence (Q01973 30-406): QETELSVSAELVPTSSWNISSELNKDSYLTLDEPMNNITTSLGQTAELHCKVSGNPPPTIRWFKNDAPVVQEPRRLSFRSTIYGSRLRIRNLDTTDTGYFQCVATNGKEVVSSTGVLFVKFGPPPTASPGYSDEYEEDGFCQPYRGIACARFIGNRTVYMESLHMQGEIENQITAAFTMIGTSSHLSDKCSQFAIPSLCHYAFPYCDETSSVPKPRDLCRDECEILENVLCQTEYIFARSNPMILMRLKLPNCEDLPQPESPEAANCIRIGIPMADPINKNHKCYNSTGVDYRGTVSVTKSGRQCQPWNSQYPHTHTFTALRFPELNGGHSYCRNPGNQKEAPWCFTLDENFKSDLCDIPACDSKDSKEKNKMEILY

[10] = biological target: T1, human ROR1 (full-length, on the cell …); assay: flow cytometry, Jeko-1 cells
Method: as §2

[11] = biological target: T1, human ROR1 (full-length, on the cell …); assay: flow cytometry, HT-29 cells
Method: as §2

human ROR1 ECD protein [12] = biological target: T3, human ROR1 ECD protein; assay: BLI (Octet), antibody on AHC sensor, ROR1 ECD in solution, 1:1 model
From the text: Octet ForteBio is widely used in the detection of antibody-antigen dynamic affinity. This method was used to determine the dynamic affinities of the candidate chimeric antibodies 3D8-Chi, 19F6-Chi and 38F8-Chi and the positive control antibody UC961 to human ROR1.

T1 sequence (Q01973 30-937): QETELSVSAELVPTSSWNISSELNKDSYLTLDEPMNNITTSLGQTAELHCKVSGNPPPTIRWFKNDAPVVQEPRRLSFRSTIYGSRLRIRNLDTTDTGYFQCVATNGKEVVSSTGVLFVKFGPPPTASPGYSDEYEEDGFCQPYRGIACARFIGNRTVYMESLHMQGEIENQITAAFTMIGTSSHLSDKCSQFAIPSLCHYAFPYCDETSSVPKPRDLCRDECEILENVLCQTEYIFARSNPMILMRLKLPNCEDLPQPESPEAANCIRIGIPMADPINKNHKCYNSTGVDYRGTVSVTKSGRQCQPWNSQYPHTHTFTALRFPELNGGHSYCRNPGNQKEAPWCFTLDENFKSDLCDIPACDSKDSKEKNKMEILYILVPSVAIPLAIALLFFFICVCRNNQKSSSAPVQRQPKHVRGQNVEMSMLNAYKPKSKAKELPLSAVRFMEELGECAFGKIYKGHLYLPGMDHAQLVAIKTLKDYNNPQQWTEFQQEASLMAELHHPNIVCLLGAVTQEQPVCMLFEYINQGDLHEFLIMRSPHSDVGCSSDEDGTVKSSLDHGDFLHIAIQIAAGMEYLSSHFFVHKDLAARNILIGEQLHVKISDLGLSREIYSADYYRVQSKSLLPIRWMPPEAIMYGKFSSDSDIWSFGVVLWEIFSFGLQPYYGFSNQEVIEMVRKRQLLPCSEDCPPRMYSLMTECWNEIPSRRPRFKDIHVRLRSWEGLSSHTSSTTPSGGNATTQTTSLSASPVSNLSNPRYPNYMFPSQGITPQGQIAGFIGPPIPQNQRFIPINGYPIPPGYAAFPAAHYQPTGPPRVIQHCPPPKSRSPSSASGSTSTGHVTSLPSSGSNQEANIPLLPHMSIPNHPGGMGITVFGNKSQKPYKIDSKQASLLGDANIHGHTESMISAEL

B1: Murine antibody 3D8.2.3 (antibody, V domains shown)
VH: EVKLVESGGGLVKPGGSLKLSCAASGFTFSSYAMSWVRQTPEKRLEWVASINSGGSTYYPDSVKGRFTISRDNARNILYLQMSSLRSEDTAMYYCARVNYYGYGDYAMDYWGQGTSVTVSS
VL: DIKMTQSPSSMYASLGERVTITCKASQDINSYLSWFQQKPGKSPKTLIYRANRLVDGVPSRFSGSGSGQDYSLTISSLEYEDMGIYYCLQYDEFPYTFGGGTNLEIK
notes: Hybridoma antibody
**Q.** For B1, which “EC50 (read off the curve)” value [1] is on record?
**A.** Its value is roughly 0.03 µg/mL.

**Q.** And the “EC50 (read off the curve)” value [2]?
**A.** Its value is roughly 0.06 µg/mL.

**Q.** What about the “activity of inducing internalization on Jeko-1 cells (Mab-ZAP, by IC50), fold over UC961” value [3] of the same binder?
**A.** The value was 3.8 fold.

**Q.** Does B1 bind [4]?
**A.** Result: no binding (tested: about 5000 ng/ml)

**Q.** What about the “EC50 (read off the curve)” value [5] of the same binder?
**A.** The value was roughly 0.02 µg/mL.

B2: Murine antibody 38F8.1.1 (antibody, V domains shown)
VH: EVKLVESGGDLVKPGGSLKLSCTASGFTFSNYAMSWVRQTPEKRLEWVASISSGGPTYYPDSVKGRFTVSRDNARNILYLQMSSLRSEDTAMYYCARGYRYDVNWYFDVWGAGTSVTVSS
VL: B1 VL with S34T, Y49H, N103K
notes: Hybridoma antibody
**Q.** What does the source list for B2?
**A.** EC50 (read off the curve) [2]: ~0.06 µg/mL; activity of inducing internalization on Jeko-1 cells (Mab-ZAP, by IC50), fold over UC961 [3]: 5.3 fold; binding result [4]: no binding (tested: about 5000 ng/ml); EC50 (read off the curve) [5]: ~0.03 µg/mL; EC50 (read off the curve) [6]: ~0.04 µg/mL

B3: Murine antibody 19F6.2.3 (antibody, V domains shown)
VH: DVQLQESGPGLVKPSQSLSLTCTVTGYSITSDYAWNWIRQFPGNKLEWMGYISYSGSIRYNPSLKSRISITRDTSKNQFFLQLNSVTTEDTATYYCARGEITYYFDYWGQGTTLTVSS
VL: DIKMTQSPASLSMAIGEKVTIRCITTTDIDDDMNWYQQKPGEPPKLLISEGNTLRPGVPSRFSSSGYGTDFVFTIENMVSEDVADYYCLQSNDLPLTFGAGTKLELK
notes: Hybridoma antibody
**Q.** B3 was tested. Which “EC50 (read off the curve)” value [1] did it give?
**A.** The value was roughly 0.01 µg/mL.

**Q.** And the “activity of inducing internalization on Jeko-1 cells (Mab-ZAP, by IC50), fold over UC961” value [3]?
**A.** The value was 23.4 fold.

**Q.** Does B3 bind [4]?
**A.** Result: no binding (tested: about 5000 ng/ml)

**Q.** And the “EC50 (read off the curve)” value [5]?
**A.** Its value is roughly 0.008 µg/mL.

**Q.** What about the “EC50 (read off the curve)” value [6] of the same binder?
**A.** Its value is roughly 0.02 µg/mL.

B4: 19F6-Chi (antibody, human IgG1, kappa, V domains shown)
VH: B3 VH
VL: DIKMTQSPASLSMAIGEKVTIRCITTTDIDDDMNWYQQKPGEPPKLLISEGNTLRPGVPSRFSSSGYGTDFVFTIENMVSEDVADYYCLQSNDLPLTFGAGTKLELKR
notes: Variable regions of 19F6.2.3 on human IgG1 / kappa constant regions; also called anti-human ROR1 chimeric antibody 19F6-Chi
**Q.** B4 was tested. Which EC50 [7] did it give?
**A.** Its EC50 is 0.087 nM.

**Q.** What about the EC50 [8] of the same binder?
**A.** The EC50 was 0.325 nM.

**Q.** What about the “fold stronger affinity than UC961 (by KD)” value (human ROR1 ECD protein [9]) of the same binder?
**A.** Its value is 34.6 fold.

**Q.** What about the EC50 [10] of the same binder?
**A.** Its EC50 is 0.271 nM.

**Q.** What about the EC50 [11] of the same binder?
**A.** Its EC50 is 0.266 nM.

**Q.** And the Kd (human ROR1 ECD protein [12])?
**A.** Its Kd is 0.456 nM.

**Q.** What about the koff (human ROR1 ECD protein [12]) of the same binder?
**A.** The koff was 0.000514 s⁻¹.

**Q.** And the kon (human ROR1 ECD protein [12])?
**A.** The kon was 1.13e+06 M⁻¹ s⁻¹.

B5: 38F8-Chi (antibody, human IgG1, kappa, V domains shown)
VH: B2 VH
VL: DIKMTQSPSSMYASLGERVTITCKASQDINSYLTWFQQKPGKSPKTLIHRANRLVDGVPSRFSGSGSGQDYSLTISSLEYEDMGIYYCLQYDEFPYTFGGGTKLEIKR
notes: Variable regions of 38F8.1.1 on human IgG1 / kappa constant regions; also called anti-human ROR1 chimeric antibody 38F8-Chi
**Q.** How did the EC50 [7] turn out when B5 was run?
**A.** Its EC50 is 0.091 nM.

**Q.** What about the EC50 [8] of the same binder?
**A.** Its EC50 is 0.416 nM.

**Q.** What about the “fold stronger affinity than UC961 (by KD)” value (human ROR1 ECD protein [9]) of the same binder?
**A.** The value was 5 fold.

**Q.** And the EC50 [10]?
**A.** Its EC50 is 0.563 nM.

**Q.** And the EC50 [11]?
**A.** The EC50 was 0.22 nM.

**Q.** And the Kd (human ROR1 ECD protein [12])?
**A.** Its Kd is 3.17 nM.

**Q.** What about the koff (human ROR1 ECD protein [12]) of the same binder?
**A.** Its koff is 0.00299 s⁻¹.

**Q.** What about the kon (human ROR1 ECD protein [12]) of the same binder?
**A.** The kon was 942000 M⁻¹ s⁻¹.
